Laboratory results published in the supplement of paper PMC12042874.
± gives the uncertainty stated by the source.

Assay: amyloid nucleation score (Sup35N fusion, yeast selection) (log enrichment); library NNK3; higher = more nucleation; inactive = no reads after selection
In short: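 Plasmid inserts were Illumina-sequenced at input and output from psi-negative yeast expressing Sup35N fused to peptides of 20 random codons. The yeast were induced with 100 μM copper sulfate for 24 hours and grown 7 days at 30°C on medium lacking adenine and uracil, and sequences with under 100 input reads were excluded. Nucleation score is the DiMSum log enrichment of output over input reads, centred on the mode score of non-aggregating sequences.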
In the case of RDGNRVQMVSIPIQVSAMLG, the amyloid nucleation score is reported as “inactive”.
In the case of LRFVSKLWWFISMSSRSHLH, the amyloid nucleation score is reported as “inactive”.
In the case of TPHESLRTCFLTKR, the amyloid nucleation score is reported as “inactive”.
With WKVMLRLALRMQCTHLAVCW the amyloid nucleation score was “inactive”.
In the case of VNGSV, the amyloid nucleation score is reported as “inactive”.
For CGCYSLMFFSMTCNEKLLSL, the amyloid nucleation score was “inactive”.
In the case of ESCRWLLVFKMVCWQ, the amyloid nucleation score is reported as “inactive”.
For RWDNMFLSWRYCWVYAVSFS, the amyloid nucleation score was “inactive”.
With RWPKIASCFSTHPWSGRYMW the amyloid nucleation score was “inactive”.
With GFSHANGHGTEKDFSSLIPV the amyloid nucleation score was “inactive”.
In the case of KRPWTVFFVFFIGFATLL, the amyloid nucleation score is reported as 1.15 ± 0.1.
For CGRRYGTGAPRCL, the amyloid nucleation score was “inactive”.
In the case of DFMWLKGLNPSTLSLPWD, the amyloid nucleation score is reported as “inactive”.
For TICGYI, the amyloid nucleation score was “inactive”.
For FILQGFPE, the amyloid nucleation score was “inactive”.
For YFNLITAYKVLSAHGRTLWR, the amyloid nucleation score was “inactive”.
ERQVYMVLGSICRKPTMERS showed an amyloid nucleation score of -1.05 ± 1.9.
In the case of LKTNCTPNMLFGFLSEMMRC, the amyloid nucleation score is reported as “inactive”.
In the case of AYRINRTTDRIIIDSGDVVV, the amyloid nucleation score is reported as “inactive”.
For FCMGLHSWNSNGRFCAVCTY, the amyloid nucleation score was “inactive”.
For LLFSGHYVGAYLGYVFPICS, the amyloid nucleation score was “inactive”.
In the case of MKLSVLNVWNSRWGLQTA, the amyloid nucleation score is reported as “inactive”.
In the case of NWNSSHLNREYTRHFSGMMV, the amyloid nucleation score is reported as “inactive”.
In the case of SDVDDKVHKVHQQLVAILHF, the amyloid nucleation score is reported as 0.624 ± 0.17.
With NENFTNAQQNFYDCVF the amyloid nucleation score was “inactive”.
For FRFSMSL, the amyloid nucleation score was “inactive”.
In the case of DEYTSNVVSNFFEIRLWFFI, the amyloid nucleation score is reported as “inactive”.
For SRRVNFLPVVFQHMTWLVLV, the amyloid nucleation score was “inactive”.
In the case of SIKLGFYIIIFDLWYSPMMV, the amyloid nucleation score is reported as “inactive”.
For DIVANYQMM, the amyloid nucleation score was “inactive”.
For YGMWHHYFGDLTLSSRLNHV, the amyloid nucleation score was “inactive”.
In the case of HMIGRCLVGIESYRW, the amyloid nucleation score is reported as “inactive”.
With DYISPYCS the amyloid nucleation score was “inactive”.
Work on FWAYERVGSRSAFGWLGREA yielded an amyloid nucleation score of 0.705 ± 0.21.
In the case of LAALLKASWVSHVVSWNKRT, the amyloid nucleation score is reported as “inactive”.
With RSYKRYSSSYLIIWGWVNMC the amyloid nucleation score was “inactive”.
In the case of TSILEWVSFDGSM, the amyloid nucleation score is reported as “inactive”.
For YSNSLRRTSPQEHS, the amyloid nucleation score was “inactive”.
STNWSILFQDHSTTFFLMCA showed an amyloid nucleation score of 0.279 ± 0.2.
For NTFCIFALTYIQWVPYLAMF, the amyloid nucleation score was “inactive”.
LFLYLCTVYNDFKELQPRNL gave an amyloid nucleation score of 2.67 ± 0.07.
In the case of RFSYVVTRSG, the amyloid nucleation score is reported as “inactive”.
For LMRNSMLKTCFRSTAFH, the amyloid nucleation score was “inactive”.
With SIALH the amyloid nucleation score was “inactive”.
Work on VVCLGTFITGDFIVVYTHYG yielded an amyloid nucleation score of 2.88 ± 0.054.
With RSDMGSHFHAELLKYEMATM the amyloid nucleation score was “inactive”.
For IWYGLDIWRPLCIGAPMVKD, the amyloid nucleation score was “inactive”.
PMERGMCLMLGSLVG gave an amyloid nucleation score of 0.942 ± 0.093.
Work on TFGWINVAYSYSFSICGCTG yielded an amyloid nucleation score of 2.62 ± 0.051.
With AQSGVPRGAPGLAFDSVPHK the amyloid nucleation score was “inactive”.
In the case of LAYWPSNGCVP, the amyloid nucleation score is reported as “inactive”.
In the case of RDNYDAFMIL, the amyloid nucleation score is reported as “inactive”.
In the case of SLTSSFFSSMDVFNSALKGG, the amyloid nucleation score is reported as “inactive”.
For NVLLFLIVKHSVGIFVV, the amyloid nucleation score was “inactive”.
In the case of CMSTKTNFT, the amyloid nucleation score is reported as “inactive”.
For SLLTDTFFIVLWTFT, the amyloid nucleation score was “inactive”.
For TVTWDWNRSEEGRCYLLLWV, the amyloid nucleation score was “inactive”.
For FEYLSMYELGISVE, the amyloid nucleation score was “inactive”.
With NLLVFDACHGVIRYGKTRVA the amyloid nucleation score was “inactive”.
With MVKSKSTLTCNSIEPCIVIF the amyloid nucleation score was “inactive”.
With PNIMCYLVAMCVGLKFPARW the amyloid nucleation score was “inactive”.
With VCYYRQACTITNLLVMVFVC the amyloid nucleation score was “inactive”.
For CNKYMKVCLGMGKVQTKNGV, the amyloid nucleation score was “inactive”.
With YGRRKYSWAVWICKHIGAYG the amyloid nucleation score was “inactive”.
For YSSSRLI, the amyloid nucleation score was “inactive”.
For SLMDGFLPNSGEFRIKYAVL, the amyloid nucleation score was “inactive”.
In the case of FKSLLSRISHFKFASGWYVH, the amyloid nucleation score is reported as “inactive”.
For ASDCWLFIGNAGSFTGKRSC, the amyloid nucleation score was “inactive”.
In the case of FHCSDYADVHSILTLLLVHT, the amyloid nucleation score is reported as “inactive”.
Work on GRNYFENVWIHRLYSSCLVM yielded an amyloid nucleation score of 1.94 ± 0.068.
In the case of FCLPICFD, the amyloid nucleation score is reported as “inactive”.
With GFKDLWYCDGF the amyloid nucleation score was “inactive”.
In the case of IRGSHGRWYSTHNCLTCDME, the amyloid nucleation score is reported as “inactive”.
With PCRKMIQKIVQM the amyloid nucleation score was “inactive”.
In the case of ATYNEMYVVPSRASPKGDWD, the amyloid nucleation score is reported as “inactive”.
For YLFHSEGHWRDPHSLPSYLT, the amyloid nucleation score was “inactive”.
With PGDNIYILMGVYKGILWWAE the amyloid nucleation score was “inactive”.
With WEFSVMSRCRKGHYTALFVV the amyloid nucleation score was “inactive”.
In the case of VASIFRVYAVVGWSVVLVGV, the amyloid nucleation score is reported as “inactive”.
Substance HGIGFDDVASG has an amyloid nucleation score of -0.045 ± 0.88.
With SKTIYWFPPYPYVQFGCHRR the amyloid nucleation score was “inactive”.
With STFMYVCWRPTYGSYYQTVR the amyloid nucleation score was “inactive”.
FISDRQSASYPWVQFWPE gave an amyloid nucleation score of 0.206 ± 0.7.
With RFSSSSQPFYSFAIVRR the amyloid nucleation score was “inactive”.
With TDRVCTPSVSDILVRWNNSQ the amyloid nucleation score was “inactive”.
Work on RGLHLGSSTWIPTAREC yielded an amyloid nucleation score of 0.678 ± 0.19.
In the case of ICDHVYVGNFLTQA, the amyloid nucleation score is reported as “inactive”.
In the case of VMIDRWRNASNWIMFISHYR, the amyloid nucleation score is reported as -0.611 ± 0.98.
Substance SIVRIFIIN has an amyloid nucleation score of 2.27 ± 0.056.
With SSLSTNARVDLSMRR the amyloid nucleation score was “inactive”.
With CMSDF the amyloid nucleation score was “inactive”.
In the case of VAVLVNALSLPEVGKGVVRR, the amyloid nucleation score is reported as 1.84 ± 0.083.
In the case of RYCNVFVKIVALCGYKGSWS, the amyloid nucleation score is reported as 2.64 ± 0.06.
With MIRLSDTRRWIVYFHQCLCG the amyloid nucleation score was -0.748 ± 1.
For QSLLSVGEWNAQHMSLSSGR, the amyloid nucleation score was “inactive”.
With QYLPGRTVFCMQIYDVQLYP the amyloid nucleation score was “inactive”.
For NSSLY, the amyloid nucleation score was “inactive”.
NLNSFSGAFVLIWGATVHFC gave an amyloid nucleation score of 1.96 ± 0.075.
For DRNEQCDSL, the amyloid nucleation score was “inactive”.
For AGLPLV, the amyloid nucleation score was “inactive”.
For SRIAFKVDFASCRARMCGVE, the amyloid nucleation score was “inactive”.
Work on VCVNSLPYLICDIRVIIDRG yielded an amyloid nucleation score of 1.11 ± 0.13.
With RGQGKHNSRYFCLIT the amyloid nucleation score was “inactive”.
For YWTANTDYTNVIGYKNTYVH, the amyloid nucleation score was -0.337 ± 0.33.
For FRVVNMSWCAPNLTLRFKYL, the amyloid nucleation score was “inactive”.
With RRNMYLL the amyloid nucleation score was -1.31 ± 2.5.
With TLMISPENIVRR the amyloid nucleation score was “inactive”.
For WHWRGTICVLCAGYRWIAHS, the amyloid nucleation score was “inactive”.
With GMSCWGSMQWNVL the amyloid nucleation score was 0.766 ± 0.17.
In the case of SLIVQAL, the amyloid nucleation score is reported as “inactive”.
With LFRLYKYLQCPSQGWCPRH the amyloid nucleation score was “inactive”.
In the case of LFYLYF, the amyloid nucleation score is reported as “inactive”.
With YFFTHDFHVVLNFANCIWYL the amyloid nucleation score was 2.99 ± 0.069.
In the case of LNSKFMLASTLLAKW, the amyloid nucleation score is reported as “inactive”.
With TYDTGWKCREPNVTIFNVWL the amyloid nucleation score was 2.91 ± 0.053.
In the case of IYSTVSYQGTVWRKYWQMNG, the amyloid nucleation score is reported as “inactive”.
In the case of NIGYSMLESPFIIIDICNSC, the amyloid nucleation score is reported as 0.619 ± 0.13.
With CHEKANQELRHPYGCECVFV the amyloid nucleation score was “inactive”.
In the case of LCSHLEVDSL, the amyloid nucleation score is reported as “inactive”.
Work on LFFCHYILY yielded an amyloid nucleation score of 1.58 ± 0.087.
For IKAPRFYAPFLLIVSQWVST, the amyloid nucleation score was “inactive”.
For VCEGMKMAALRYREERC, the amyloid nucleation score was “inactive”.
With GDNICQNVFTDGKVDAFFLT the amyloid nucleation score was “inactive”.
VWWSYLQKSKILI gave an amyloid nucleation score of 0.624 ± 0.2.
With NMGTGGRLEGPVDSGHSEKF the amyloid nucleation score was “inactive”.
In the case of NVYFGRYFI, the amyloid nucleation score is reported as “inactive”.
In the case of SYLIGIWGFWINGIVFAVCA, the amyloid nucleation score is reported as “inactive”.
For FFASRENPSFHFVSFWTYTW, the amyloid nucleation score was “inactive”.
In the case of LVLSWWYMMFFRFDGV, the amyloid nucleation score is reported as “inactive”.
With DYTMVKLLIGLSGIRTPVVR the amyloid nucleation score was “inactive”.
With QRVMFFCAMSLNKPRSV the amyloid nucleation score was “inactive”.
In the case of CMGYRFC, the amyloid nucleation score is reported as “inactive”.
In the case of GCVAAMS, the amyloid nucleation score is reported as “inactive”.
With YTRSCSMRLF the amyloid nucleation score was “inactive”.
GSTTCLYTSIPCCAGVLS showed an amyloid nucleation score of 0.449 ± 0.21.
In the case of HSFVSWTRLT, the amyloid nucleation score is reported as “inactive”.
In the case of ASTTVGCVYYTLVLIG, the amyloid nucleation score is reported as 1.98 ± 0.09.
With PYSTFLLCQGLTNYMYSSMS the amyloid nucleation score was “inactive”.
In the case of LDTVTCNSLETAFGSFKNWL, the amyloid nucleation score is reported as “inactive”.
In the case of VFNMLGFSDY, the amyloid nucleation score is reported as “inactive”.
In the case of WHGYYMFLW, the amyloid nucleation score is reported as “inactive”.
ISEVESWPFHCGYGNI gave an amyloid nucleation score of 0.467 ± 0.28.
For TVRDTEFLWFGDWLRRGSLS, the amyloid nucleation score was -0.034 ± 0.77.
With FFIYKFYPFRGISLSAVRIR the amyloid nucleation score was “inactive”.
With RLIQTLWIFIKVRSRALVTH the amyloid nucleation score was “inactive”.
With LCKQTSTTNLSGV the amyloid nucleation score was “inactive”.
For NTGLAFTSYMTMDLLCISGA, the amyloid nucleation score was “inactive”.
In the case of SYLNVLPNFLRLTAICVVFR, the amyloid nucleation score is reported as “inactive”.
In the case of FIIISIYGCIIVRWTKRAWG, the amyloid nucleation score is reported as “inactive”.
For NLNYNLSPLTEYSVSD, the amyloid nucleation score was “inactive”.
For WWSCGILSKPFFWYISRTF, the amyloid nucleation score was “inactive”.
For LSVTRNACTEPFRGFLIGLY, the amyloid nucleation score was “inactive”.
For LENNIRSDSTFSTWTHDQCQ, the amyloid nucleation score was “inactive”.
In the case of YIFVALYPSHT, the amyloid nucleation score is reported as 0.443 ± 0.28.
Work on LPRPFSYSGLR yielded an amyloid nucleation score of -0.289 ± 0.59.
With RLSNVSTMGGMRIPDLLEM the amyloid nucleation score was “inactive”.
In the case of LSAFVQDVLNVIQMLTEREF, the amyloid nucleation score is reported as “inactive”.
With RMKGFEFCCWDQ the amyloid nucleation score was -0.31 ± 0.55.
With SWYSMGNP the amyloid nucleation score was 1.04 ± 0.14.
